Assay: yeast display, Sf9 membrane polyspecificity reagent, FACS + sequencing; frameworks hold sequencing errors
Summary of the method: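 Polyreactivity labels are assigned by the sorting gate from which each nanobody was recovered. The gates were low and high (top ~1%), set on anti-HA fluorescence for expression and streptavidin fluorescence for reagent binding. Before sorting, galactose-induced (36–48 hours) yeast display cells were stained for 1 hour at 4 °C with 10% biotinylated, detergent-solubilized Sf9 membrane reagent.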

Row | Sequence | polyreactivity (PSR sort gate)
1 | QVQLVESGGGLVQAGGSLRLSCAASGRTFRRYVMGWYRQAPGKERELGAAITGSGGSTYYADSVKGRFTISRDNAKNTVYLQMNSLKPEDTAVYYCAADGICFYRSYGYDYWGQGTQVNVSS | high polyreactivity
2 | QVQLVQSGGGLVQAGGSLSLSCAASGSIFPGYTRGWYRQAPGKERELVAAISRRGGSTYYADSVKGRFTISRDNAKNPGYLQMNSLKPEDTAVYYCAKVPDYRFEYWGQGTQVTVSS | high polyreactivity
3 | QVQLVESGGGLVQAGGSLRLSCAASGRTFARYAMGWYRPAPGKERELVAAISSSGVSSYYADSVKGRFTISRDNAKNTVYLQMNSLKPDDTAVYYCVTYRNWWYDYWGQGTQVTVSS | high polyreactivity
4 | QVQLEESGGGLVQAGGSLRLSSAASGTISATYAMGWYRQAPGKERELVAAISRNGGSTYYADSVKGRFTISRDNAKNTVYLQMNSLKPEDTAVYYCATSSSKSMYWGQGTQVTVSS | high polyreactivity
5 | QVQLVESGGGLVQAGGSLRLSCAASGRTFYYYAMGWYRQAPGKERELVATITKSSGSTSYADSVKGRFTISRDNAKNTVYLQMNSLKPEDSAVYSCARRIKWGKFKGWNYPAHNYWGQGTQVTVSS | high polyreactivity
6 | QVKLVESGGGLVQAGGSLRLSCAASGSTFSSYAMGWYRQAPGKERELVAAISSSGGTSTYADSVKGRFTISRDNAKNTVYLQMNSLKPEDTAVYYCAARQDRLLRDYRHDYWGQGTQVTVSS | high polyreactivity
7 | QEQHVESGGGLVQAGGSLRLSSAASVNIIGFYAKGWYREAPGKESEFVAAISFGTDRTYYADSVKGRFTISRENAKNTVYLQMNSLKPEDTALYYCNRRCNNGVRYGECDYWGQGTQVTVSS | high polyreactivity
8 | QVQLVVSGGGLVQAGGSLRLICAASGFSFFFYALGWYSQAPGKDRELHATINWSGASTYYADSVMGRFTISRDNATNTVYLQMNSLKPEDTAVYYCAKDGHYPLVYLAFDYWGQGTQVTGSS | low polyreactivity
9 | QVQLVESGGGLVQAGGSLRLICADSGRIFGWYAMGWYRQAPGKERELVAAITSGSRTSYADSVKGRFTISRDNAKNTVYLQMNSLKPEDTAVYYCNRVSHLDYYWGQGTQVTVSS | high polyreactivity
10 | QVQLVESGGGLVQAGGSLRLSCAASGRTFVDYDMGWYRQAPGKERELVADINSGGSAYYADSVKGRFTISRDNAKNTVYLQMNSLKPEDTAVYYCAASYYGDNKYDYWGQGTQVTVSS | high polyreactivity
11 | QVQLVESGGGLVQAGGSLRLSCAASGRILGRKAMGWYRHAPGKEREYVAAISSGGNTYYADSVKGRFTISRDNAKNTVYLQMKSLKPEDTAVYYCNADPDTYVSTITHDSWGQGTQVTVSS | low polyreactivity
12 | QVQLVESGGGLVQAGGSLRLSCAASGRIFRYYAIGWYRQAPGKERELVAAISKSGGGTFYADSVKGRFTISRDNAKNTVYLQMNSLKPEDTAVYYCAARDKGLGKHDYWGQGTQVTVSS | low polyreactivity
13 | QVQLVESGGGLVQAGGSLRLSCAASGRTFLPNAMGWYRQAPGKERELVAVITSGGSTNYADSVKGRFTISRDNAKNTVYLQMNSLKPEDTAVYYCAARRWSSSQGHWGKSAGYGYWGQGTQVTVSS | low polyreactivity
14 | QVQLVESGGALVQAGGSLRLSCAASGSTFSYNAMGWYSQAPGKERELVAAISSRGSSTYYADSVKGRFTISRDNAKNTVYFQINSLKPEDTAVYDCAARSYWGGLRYDYWGQGTQVTVSS | high polyreactivity
15 | QDQLVESGGGLDQAGGSLRLSCAASGRIFALNAMGWYRQAPGKERELVATIRWRGGSTYYADSVKGRFTISRDYAKNTVYLQMNSLKPEDTAVYYCASYSGNRRTYDYWGQGTQVTVSS | high polyreactivity
16 | QVQLVESGGGLVQAGGSLRLSCAASGFTFHNYAMGWYRQAPGKEREFVAAITRNTASTYYADSVKGRFTISRDNAKNTVYLQMNSLNPEDTAVYYCAATDKKHRTAYDSWGQGTQVTVSS | low polyreactivity
17 | QVQLVESGGGLVQAGGSLRLSCAASGSIFPQYAMGWYRQAPGKERELVAAISWSGGRTYYADSVKGRFTISRDNAKNTVYIQMNSLKPEDTAVYYCNRLYRRWYGREDDYWGQGTQVTVSS | high polyreactivity

Source: the nanobody polyreactivity screen of Harvey et al. (2022)
